The text below walks through data of patent publication US20020031818A1, “Modification of Mdm2 activity” (priority 2000, published 2002).

Assay [1] addresses T1, Ubc9 binding to Mdm2 (Homo sapiens, UniProt Q00987).
T1 construct: made in house; host or cells: GST-Mdm2: bacteria; Ubc9: in vitro translation
In words: In vitro binding of Ubc9 to GST-Mdm2. To be noted: GST-Mdm2 phosphorylated by active p38 kinase. How it is done: FIGS. 17A and 17B. A. p19^ARF decreases Ubc9 binding to Mdm2. Bacterially expressed and purified GST-Mdm2 (1 μg) was incubated with ^35S-labeled in vitro translated p19^ARF and Ubc9 at the indicated ratios. After 30 min of incubation GSH beads bound-GST-Mdm2 were washed and separated on a 12% SDS-PAGE. Gel was dried and subjected to autoradiograph, depicting relative amounts of Ubc9 and p19^ARF bound to Mdm2. B. Bacterially expressed and purified GST-Mdm2 (1 μg) was phosphorylated by purified form of active p38 kinase as indicated. Phosphorylated or un-phosphorylated Mdm2 was incubated for 30 min with in vitro translated UbcH5b and Ubc9 (25 μl). Beads were washed and separated on a 12% SDS-PAGE. Gel was dried and exposed to X-ray film. Position of Ubc9 and UbcH5b is shown.
A prerequisite for Mdm2 sumoylation is the association of Ubc9, the SUMO conjugating enzyme, with Mdm2, which enables subsequent conjugation of SUMO-1 to Mdm2. Inhibition of Ubc9's association with Mdm2 attenuates Mdm2 sumoylation. Given the effect of p19^ARF on Mdm2 sumoylation, we proceeded to determine whether p19^ARF may alter Ubc9 binding to Mdm2. To this end we performed an in vitro binding assay, using in vitro translated p19^ARF and Ubc-9, as indicated. […] We next assessed possible changes in Ubc9 binding to Mdm2 upon its phosphorylation by p38.

Assay [2] deals with T2, Ubc9 (Mus musculus, UniProt P63280).
T2 construct: endogenous in cells; host or cells: NIH 3T3
T2 sequence (P63280 whole entry): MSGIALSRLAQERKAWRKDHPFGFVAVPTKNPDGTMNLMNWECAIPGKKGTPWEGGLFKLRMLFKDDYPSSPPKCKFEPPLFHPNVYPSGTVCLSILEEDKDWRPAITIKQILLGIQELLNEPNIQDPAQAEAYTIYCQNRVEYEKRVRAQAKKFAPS
As to the kind of experiment: Co-immunoprecipitation of Ubc9 with HA-tagged peptide expressed in NIH 3T3 cells. The note with it: HA-tagged penetratin peptide vector, 36 h after transfection. The class given is cell-based. How it is done: (§1) FIGS. 9A and 9B. A. A peptide corresponding to aa 40-59 on Mdm2 binds Ubc9. mu9bs (Mdm2 Ubc9 binding site) corresponding to aa 40-59 of Mdm2 and its control scrambled counterpart peptide mu9sb (were immobilized on an AminoLink column [Pierce]). 50 μl of peptide-bound beads were incubated with 1 mg of cell lysates from EJ mouse fibroblast cells. Beads were washed extensively with 0.5M LiCl/TBS and eluates were separated on a 14% gel. B. Ubc9 binds to mu9bs in vivo. NIH 3T3 cells were transfected with wt or mutant Ubc9 binding site peptide. 36 h after transfection cells were lysed and lysates were immunoprecipitated with HA-antibodies directed against the HA-tag of transfected peptides. Upper panel depicts to Co-immunoprecipitation of Ubc9 with the wt but not the mutant peptide.
Vectors described in Example I were used in the present example. The sequence of the Ubc-9 binding domain on Mdm2 (aa 40-59, Mdm2 Ubc9 binding site; mu9bs) in wt or in a scrambled orientation (mu9sb) was cloned in frame between EcoRI and XhoI restriction sites into a pcDNA3 that carries the penetration sequence, followed by the sequence encoding the HA-tag. All Mdm2 mutants were cloned in pBluescipt KS. Mutant Ubc9C93S was a gift from Olli Jänne.
To further confirm the ability of the peptide corresponding to mu9bs to associate with Ubc9 we carried out in vivo reactions. […]

Assay [3] concerns the target T3, GST-Mdm2 (Homo sapiens, UniProt Q00987).
T3 construct: made in house
As to the kind of experiment: In vitro conjugation of SUMO-1 to GST-Mdm2 (in vitro sumoylation). The class given is biochemical.
Description: A. Time dependent Mdm2 sumoylation in vitro. Bacterially expressed and purified GST-Mdm2 was subjected to in vitro sumoylation reaction in the presence of E1, Ubc9, and ^35S-Sumos. Reaction was terminated after 10,30,50 or 60 minutes, Proteins were separated on 8% gel, Commassie stained, dryed and exposed overnight (upper panel). Lower panel depicts Commassie blue staining of Mdm2 forms. […] (Upper part) The specific Ubc-9-binding site peptide or a nonspecific peptide was added to the reaction for the indicated time periods. […] The lower panel depicts a Coomassie staining visualizing relative amounts of sumoylated and non-sumoylated forms of purified GST-Mdm2. C. The Mdm2 sumoylation assay was carried out in the presence of Ubc-9-binding site peptide (mu9bs) or a nonspecific peptide (mu9bs) which were added to the reaction at the indicated concentrations. […] Mdm2/p53 double null cells were transfected with Flag-tagged Mdm2, HA-tagged Sumo-1 and increasing amounts of the specific or nonspecific Ubc-9-peptides, respectively. Cells were harvested 36 h later and 500 μg of protein was immunoprecipitated using Mdm2 antibodies (2A10). Immunoprecipitated Mdm2 levels were detected using 2A10 antibodies (top). The same membrane was stripped and reprobed using monoclonal antibodies against Sumo-1 (Zymed, middle) to visualize the level of Sumo-1 conjugation to Mdm2 after Ubc-9-peptide expression.
A. Bacterially expressed and purified Mdm2 (1 μg) was incubated with ^32P-labeled Sumo-1, purified Aos1/Uba2 and Ubc9 (0.5 μg) for 60 min at 37° C. in conjugation buffer. For indicated time-periods in vitro translated wt or mutant p19^ARF (0.5 mg) was added to the sumoylation reactions. Upper panel depicts the amount of Sumoylated Mdm2, lower panel reveal the level of Mdm2 and Sumo-Mdm2 in Coomassie blue gel. B. Bacterially expressed and purified Mdm2 (1 μg) was incubated with in vitro-translated ^35S-Sumo, purified Aos1/Uba2 and Ubc9 (0.5 μg) for 60 min at 37° C. in conjugation buffer in the presence of the increasing amounts of bacculovirus-expressed p19^ARF (0, 0.1, 0.5, 1 μg; lanes 1-4 respectively). Bead-bound complexes were washed before being denatured in 3× Sample Buffer. Proteins were separated on 8% SDS-PAGE. Gel was stained with Coomassie blue to verify equal Mdm2 input (lower panel), dried and exposed to X-ray film, which depicts SUMO-1 conjugation to Mdm2 in the presence of the indicated p19 forms (upper panel). […] Double-null cells were transfected with Flag-tagged Mdm2 (1.5 μg), HA-tagged SUMO (1.5 μg) and p19 wt (1.5 μg). Cells were treated with MG132 (40 mM) for 5 h prior to protein preparation. […] (Left) Immunoprecipitated Mdm2 was detected using monoclonal Mdm2 antibodies (2A10, left). […]

Assay [4] addresses T2, Ubc9. In words: Ubc9 capture by peptide immobilized on AminoLink column, Western blot. The class given is binding. To be noted: peptide-bound beads incubated with cell lysates from EJ mouse fibroblast cells; Western blot with Ubc9 antibodies. How it is done: as §1
Immunobilization of peptides to an AminoLink® column (Pierce Biochemical) was carried out exactly according to the manufacturer's protocol. In brief, column was equilibrated with coupeling buffer and 1 column volume of solution containing 1 mg of peptide was incubated with gel for 6 h. Later column was drained and washed with coupeling buffer. […]
To further assess the role of the Ubc-9 binding domain in Mdm2 sumoylation, a peptide that corresponds to aa 40-59 of Mdm2 was synthesized. […] Beads coupled to the peptides were incubated with cell lysates and bound proteins were analyzed in Western blots using antibodies to Ubc9.
(In general: A western blot detects proteins with antibodies after separation by electrophoresis.)

The target of assay [5] is T4, Mdm2 (Homo sapiens, UniProt Q00987).
T4 construct: expressed in transfected cells; host or cells: p53/Mdm2 double null cells
T4 sequence (Q00987 whole entry): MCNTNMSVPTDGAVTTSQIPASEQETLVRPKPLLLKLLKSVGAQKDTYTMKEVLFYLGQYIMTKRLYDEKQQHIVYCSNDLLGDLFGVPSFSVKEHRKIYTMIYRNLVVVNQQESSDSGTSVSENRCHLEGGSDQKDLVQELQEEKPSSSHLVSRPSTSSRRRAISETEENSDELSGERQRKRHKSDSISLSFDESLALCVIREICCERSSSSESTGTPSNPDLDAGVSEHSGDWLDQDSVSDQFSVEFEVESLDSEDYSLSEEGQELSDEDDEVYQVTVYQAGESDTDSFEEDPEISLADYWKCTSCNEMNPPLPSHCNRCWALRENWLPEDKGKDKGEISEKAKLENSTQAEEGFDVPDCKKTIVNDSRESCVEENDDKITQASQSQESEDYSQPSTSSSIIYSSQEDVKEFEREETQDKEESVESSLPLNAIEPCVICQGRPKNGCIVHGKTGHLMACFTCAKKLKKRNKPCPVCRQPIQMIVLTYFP
In words: In vivo sumoylation of Mdm2 in p53/Mdm2 double null cells. The class given is cell-based. To be noted: p53/Mdm2 double null cells, Flag-Mdm2, HA-Sumo-1, increasing amounts of peptide, 36 h. Here is the method:
FIGS. 10A-10D. A. Time dependent Mdm2 sumoylation in vitro. Bacterially expressed and purified GST-Mdm2 was subjected to in vitro sumoylation reaction in the presence of E1, Ubc9, and ^35S-Sumos. Reaction was terminated after 10,30,50 or 60 minutes, Proteins were separated on 8% gel, Commassie stained, dryed and exposed overnight (upper panel). Lower panel depicts Commassie blue staining of Mdm2 forms. B. A peptide corresponding to the Ubc-9 binding site on Mdm2 decreases Mdm2 in vitro sumoylation of Mdm2 in a time-dependent manner. (Upper part) The specific Ubc-9-binding site peptide or a nonspecific peptide was added to the reaction for the indicated time periods. […] The lower panel depicts a Coomassie staining visualizing relative amounts of sumoylated and non-sumoylated forms of purified GST-Mdm2. C. The Mdm2 sumoylation assay was carried out in the presence of Ubc-9-binding site peptide (mu9bs) or a nonspecific peptide ([…]) which were added to the reaction at the indicated concentrations. […] D. A peptide corresponding to the Ubc-9 binding site on Mdm2 decreases Mdm2 sumoylation in vivo. […] Immunoprecipitated Mdm2 levels were detected using 2A10 antibodies (top). […]
FIG. 13A-13E. […] (Left) Immunoprecipitated Mdm2 was detected using monoclonal Mdm2 antibodies (2A10, left). […]

The test system of assay [6] is Mdm2 association with p53. As to the kind of experiment: p53 immunoprecipitation and immunoblot for bound Mdm2 form and p53 level in peptide-expressing cells. The class given is cell-based. Here is the method: FIG. 11. Ubc9 binding affects the form of Mdm2 associated with p53. Mdm2/p53 double null cells were transfected with mu9sb or the wild type form mu9bs together with p53 and Mdm2. 36 h after transfection protein extracts were prepared and used for immunoprecipitation of p53 (using D01 antibodies). Immunoprecipitated material was analyzed via immunoblotting using antibodies to Mdm2, enabling to reveal the two major forms of Mdm2, indicated.
Therefore, we transfected human fibroblasts with mu9bs or mu9sb peptides. Immunoprecipitation of p53 was followed by Western blot analysis to determine the type and level of Mdm2 bound to p53 under each of these conditions.

T3 sequence (Q00987 whole entry): as above
T1 sequence (Q00987 whole entry): as above

“p38: purified active p38 kinase that phosphorylates Mdm2”: the “Ubc9 binding to Mdm2 upon in vitro phosphorylation of Mdm2” value in assay [1] was “marked decrease in Ubc9 binding to Mdm2”.
For “mu9bs: peptide that corresponds to aa 40-59 of Mdm2 (mdm2 Ubc9 binding site) (SVGAQKDTYTMKEVLFYLGQ)”, in assay [2], the “association of expressed peptide with Ubc9 in vivo” value is given as “associated with Ubc9”. Besides, the “Mdm2 sumoylation in vitro, increasing concentrations of peptide” value in assay [3] was “dose-dependent decrease of Mdm2 sumoylation”. Moreover, the “Mdm2 sumoylation in vitro, peptide added for different periods of time” value in assay [3] (peptide present 0-50 min of 60 min reaction) was “sufficient to attenuate Mdm2 sumoylation in a manner that coincided with the length of the incubation”. Further, in assay [4], the “capture of Ubc9 by column-coupled peptide” value is listed as “captured Ubc9”. Also, in assay [5], the “degree of Mdm2 sumoylation in vivo upon peptide co-expression” value was “dose-dependent decrease in the degree of Mdm2 sumoylation in vivo”. Further, the “overall level of p53 expression” value in assay [6] is given as “increased level of p53”. In addition, the “form of Mdm2 (75 kDa non-sumoylated / 90 kDa sumoylated) associated with p53” value in assay [6] (peptide expression, p53 immunoprecipitation) is “p53 association only with the non-sumoylated form of Mdm2”.
